Measured values reported in patent publication US20230391872A1 (ANAPTYSBIO, published 2023).

Tests used:
[1] = biological target: human BTLA on cells (stably transfected 293c18 cells; human peripheral blood T and B cells) (human) (UniProt Q7Z6A9); assay: flow cytometry (MFI) on gated CD4+ T cells of human PBMC, APC-labelled antibody [left panel (Naive CD4+ T cells]
[2] = biological target: human BTLA on cells (stably transfected 293c18 cells; human peripheral blood T and B cells) (human) (UniProt Q7Z6A9); assay: flow cytometry (MFI) on gated CD8+ T cells of human PBMC, APC-labelled antibody [middle panel (Naive CD8+ T cells]
[3] = biological target: cynomolgus monkey BTLA on cells (stably transfected 293c18 clone 1G5; cynomolgus peripheral blood T and B cells) (cynomolgus monkey); assay: flow cytometry dot plot, CD3 (PerCP Cy5.5) against BTLA (APC), lysed cynomolgus monkey whole blood, antibody at 33 nM
[4] = biological target: T1, human BTLA ECD-his (monomeric human BTLA-his) (human, UniProt Q7Z6A9 31-157); assay: SPR, Biacore T200, antibody captured on anti-human IgG, monomeric human BTLA-his as analyte, 25 °C, 1:1 model; 6G3 IgG1 (APE10585.04) captured on the chip; human BTLA-his analyte
T1 construct: extracellular domain; also called human BTLA extracellular domain
T1 sequence (looked up): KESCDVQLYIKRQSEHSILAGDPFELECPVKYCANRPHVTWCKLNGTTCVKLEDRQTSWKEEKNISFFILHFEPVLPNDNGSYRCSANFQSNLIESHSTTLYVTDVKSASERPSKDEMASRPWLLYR
Description: (§1) Surface plasmon resonance (SPR) analyses were carried out using a Biacore T200 (GE Healthcare Life Sciences). Kinetic constants were determined using a 1:1 binding model in the Biacore T200 Evaluation Software to calculate on- and off-rates (kₐ and kd, respectively), and dissociation constants as a measure of overall affinity (KD). Anti-human IgG (GE Healthcare Life Sciences) was immobilized on a CMS chip using EDC-activated amine coupling chemistry (420 seconds contact at a flow rate of 10 μl/min). Antibodies (APE10585.04 6G3 IgG1 and APE10840.05 6G3 IgG4), each at 0.5 μg/m1) were captured in a 60 second contact with the flow cell using a flow rate of 10 μl/min. Monomeric human BTLA-his or cynomolgus monkey BTLA-his at 60 nM, 20 nM, 6.7 nM and 2.2 nM concentrations was flowed over captured antibody (480 seconds association, 1800 seconds dissociation). Runs were at 25° C. and used buffer containing 10 mM HEPES, pH 7.6, 150 mM NaCl, 3 mM EDTA, 0.05% polysorbate 20 (HBS-EP+, pH 7.6; Teknova) for the mobile phase and all dilutions. At the end of each cycle, bound antigen was removed by regeneration with two successive exposures (60 seconds and 90 seconds) to 3 M MgCl2 (30 μl/min). Sensorgrams and binding constants corresponding to the experiment are shown in FIG. 1 (human BTLA) and FIG. 1 (cynomolgus monkey BTLA). […]

[5] = biological target: T2, cynomolgus monkey BTLA ECD-his (monomeric cynomolgus monkey BTLA-his) (cynomolgus monkey, UniProt A0A2K5W7M7 31-157); assay: SPR, Biacore T200, antibody captured on anti-human IgG, monomeric cynomolgus monkey BTLA-his as analyte, 25 °C, 1:1 model; 6G3 IgG1 (APE10585.04) captured on the chip; cynomolgus BTLA-his analyte
T2 construct: extracellular domain; also called cynomolgus monkey BTLA extracellular domain
T2 sequence: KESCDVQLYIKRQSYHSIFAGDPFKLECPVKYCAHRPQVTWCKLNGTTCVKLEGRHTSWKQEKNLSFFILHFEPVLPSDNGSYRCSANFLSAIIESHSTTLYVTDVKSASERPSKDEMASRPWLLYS
Description: as §1

[6] = biological target: T1, human BTLA ECD-his (monomeric human …); assay: SPR (Biacore T200), antibody captured on anti-human IgG chip, monomeric BTLA-his flowed at 60, 20, 6.7 and 2.2 nM, 1:1 binding model, 25 C [upper left panel (Hu BTLA]
Description: (§2) Surface plasmon resonance (SPR) analyses were carried out using a Biacore T200 (GE Healthcare Life Sciences). Kinetic constants were determined using a 1:1 binding model in the Biacore T200 Evaluation Software to calculate on- and off-rates (kₐ and kd, respectively), and dissociation constants as a measure of overall affinity (KD). Anti-human IgG (GE Healthcare Life Sciences) was immobilized on a CMS chip using EDC-activated amine coupling chemistry (420 seconds contact at a flow rate of 10 μl/min). Antibodies (APE10585.04 6G3 IgG1 and APE10840.05 6G3 IgG4), each at 0.5 μg/m1) were captured in a 60 second contact with the flow cell using a flow rate of 10 μl/min. Monomeric human BTLA-his or cynomolgus monkey BTLA-his at 60 nM, 20 nM, 6.7 nM and 2.2 nM concentrations was flowed over captured antibody (480 seconds association, 1800 seconds dissociation). Runs were at 25° C. and used buffer containing 10 mM HEPES, pH 7.6, 150 mM NaCl, 3 mM EDTA, 0.05% polysorbate 20 (HBS-EP+, pH 7.6; Teknova) for the mobile phase and all dilutions. At the end of each cycle, bound antigen was removed by regeneration with two successive exposures (60 seconds and 90 seconds) to 3 M MgCl2 (30 μl/min). Sensorgrams and binding constants corresponding to the experiment are shown in FIG. 1 (human BTLA) and FIG. 1 (cynomolgus monkey BTLA). Antibody capture levels in resonance units (RU) are listed at the right side of each panel.

[7] = biological target: T2, cynomolgus monkey BTLA ECD-his …; assay: SPR (Biacore T200), antibody captured on anti-human IgG chip, monomeric BTLA-his flowed at 60, 20, 6.7 and 2.2 nM, 1:1 binding model, 25 C [lower left panel (Cyno BTLA]
Description: as §2

[8] = biological target: T3, purified recombinant BTLA-ECD (Example 19)
T3 sequence (Q7Z6A9 31-157, species assumed, looked up): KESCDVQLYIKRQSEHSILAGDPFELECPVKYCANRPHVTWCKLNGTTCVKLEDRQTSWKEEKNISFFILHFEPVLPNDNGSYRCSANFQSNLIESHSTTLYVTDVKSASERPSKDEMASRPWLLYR

[9] = biological target: T4, recombinant human BTLA monomer, hBTLA amino acids 31-155 followed by a 6-his tag (human, UniProt Q7Z6A9 31-155); assay: hydrogen-deuterium exchange with recombinant human BTLA monomer
T4 construct: Antigen of the hydrogen-deuterium exchange experiments
T4 sequence: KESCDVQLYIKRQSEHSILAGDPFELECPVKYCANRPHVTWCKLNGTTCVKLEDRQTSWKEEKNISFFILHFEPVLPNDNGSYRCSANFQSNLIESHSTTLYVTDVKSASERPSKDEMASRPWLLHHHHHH
Description: Hydrogen-deuterium exchange mapping of the peptides on BTLA bound by the 6G3 and 10D8 antibodies disclosed herein was performed using recombinant human BTLA monomer. […] FIGS. 7A, 7B, and 7C show a ribbon model of the crystal structure of human BTLA extracellular domain (black) in complex with a space-filling model of the crystal structure of human HVEM extracellular binding domain (light gray) rendered in PyMOL from Protein Data Bank structure (Compaan et al., J. Biol Chem 280: 39553-39561 (2005)). FIG. 7A summarizes a hydrogen-deuterium exchange experiment using the 6G3 antibody (APE12839.05 (H Chain SEQ ID NO: 144, L Chain SEQ ID NO: 174)), FIG. 7B summarizes a hydrogen-deuterium exchange experiment using the 10D8 antibody (APE11482.06), and FIG. 7C summarizes a hydrogen-deuterium exchange experiment using a reference BTLA antagonist antibody (APE10693.17). For each experiment, the BTLA/antibody mixture or BTLA alone was deuterium labeled for 4, 10, or 60 minutes in order to see the exchange kinetics. After incubation, the BTLA protein was subjected to rapid enzymatic proteolysis at acidic pH and the incorporation of deuterium into resulting peptides quantified by liquid chromatography-mass spectrometry.

Question: For “reference anti-BTLA antibody MIH26 (APC-labeled, BioLegend)”, which EC50 (read off the curve) [1] is on record?
Answer: Its EC50 (read off the curve) is 2 nM.

Question: And the EC50 (read off the curve) [2]?
Answer: The EC50 (read off the curve) was 3 nM.

Question: Which Q8-2 (percent CD3+ BTLA+ cells) [3] does the source give for “APC-Mouse Anti-Human CD272 (BTLA) reference antibody, clone J168-540 (BD Biosciences)” here?
Answer: Its Q8-2 (percent CD3+ BTLA+ cells) is 35.8%.

Question: And the Q8-4 (percent CD3- BTLA+ cells) [3]?
Answer: Its Q8-4 (percent CD3- BTLA+ cells) is 28%.

Question: What about the Total BTLA (percent of gated cells BTLA-positive) [3] of the same molecule?
Answer: Its Total BTLA (percent of gated cells BTLA-positive) is 63.9%.

B1: 6G3 IgG1 anti-BTLA antibody (APE10585.04) (antibody, V domains shown)
VH: QVQLVQSGAEVKKPGSSVKVSCKASGYVFSTSWMNWVRQAPGQGLEWMGRIYPGDADTNYVGKFKGRVTITADKSTTTAYMELSSLRSEDTAVYFCAKSGTFNFGNYRWYFDVWGKGTTVTVSS
VL: AIQLTQSPSSLSASVGDRVTITCRVSENIYSHLAWYQQKPGKAPKLLIYAATNLALGVPSRFSGSGSGTDYTLTISSLQPEDFATYYCQLFWGPPLTFGGGTKVEIKR
notes: Same variable regions as 6G3 IgG4, in IgG1 format; also called APE10585.x; APE10585.04 6G3 IgG1
Question: How did the Kd [4] turn out when B1 was run?
Answer: The Kd was ~5 nM.

Question: What about the Kd [5] of the same molecule?
Answer: Its Kd is ~11 nM.

Question: And the Kd [6]?
Answer: The Kd was 3.56 nM.

Question: And the koff [6]?
Answer: Its koff is 0.000245 s⁻¹.

Question: And the kon [6]?
Answer: Its kon is 68900 M⁻¹ s⁻¹.

Question: What about the Kd [7] of the same molecule?
Answer: The Kd was 10.8 nM.

Question: And the koff [7]?
Answer: The koff was 0.00295 s⁻¹.

Question: And the kon [7]?
Answer: Its kon is 272000 M⁻¹ s⁻¹.

B2: purified recombinant Proteinase 3 (PR3) (protein)
chain: IVGGHEAQPHSRPYMASLQMRGNPGSHFCGGTLIHPSFVLTAAHCLRDIPQRLVNVVLGAHNVRTQEPTQQHFSVAQVFLNNYDAENKLNDVLLIQLSSPANLSASVATVQLPQQDQPVPHGTQCLAMGWGRVGAHDPPAQVLQELNVTVVTFFCRPHNICTFVPRRKAGICFGDSGGPLICDGIIQGIDSFVIWGCATRLFPDFFTRVALYVDWIRSTLR
Question: For B2, which “proteolytic cleavage after co-incubation up to 60 minutes (gel lanes)” value [8] is on record?
Answer: The value was “soluble BLTA-ECD was cleaved into multiple smaller fragments”.

B3: 10D8 antibody (APE11482.06) (antibody, V domains shown)
VH: QVQLVQSGAEVKKPGASVKVSCKASGYTLTDYTIHWVRQAPGQRLEWMGWIYPGSGNTKYNDEFKVRVTITRDTSASTAYMELSSLRSEDTAVYYCARRNYYAMEYWGQGTTVTVSS
VL: DIQMTQSPSSLSASVGDRVTITCKASQNVFTNVAWFQQKPGKAPKPLIYSASYRYSGVPSRFSGSGSGTDFTLTISSLQPEDFATYYCQQYSTYPYTFGQGTKLEIKR
Question: Does B3 bind [9]?
Answer: Result: binds
